The results in this text go back to the supplement of paper PMC9170038.

For the data set, the system named is MS2 coat protein. Put plainly: apparent KD of MS2 coat protein; designed switch direction (-1 OFF switch, 1 ON switch): -1; higher = weaker reporter binding. In short, it runs like this: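 Three titration conditions were used: no input, 200 uM small-molecule ligand, and an oligonucleotide input. In each, SNAP-549-labelled MS2 coat protein was raised from 0.7 or 1.5 nM, doubling, to 3 µM over designed RNA switches transcribed on Illumina chips by stalled E. coli RNA polymerase. Curve fits of normalised cluster fluorescence gave values whose per-design median over clusters is the apparent KD.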

The mark [1] stands for this setting: Eterna round: R95, input ligand: microRNA oligo, concentration not stated.
[2] abbreviates: input ligand: microRNA oligo, concentration not stated.
Setting [3] is: Eterna round: R95, input ligand: FMN 200 uM.
The mark [4] stands for this setting: Eterna round: R95, input ligand: none.

For the sequence “GUGGUACAUGAGGAUCACCCAUGUUAGGAUAUCGCGUGAGGUUUUACUUCCGCGCGCGCGAGAAGGGACGUCUU (puzzle: Exclusion 1)”, the “apparent KD of MS2 coat protein” value under setting [1] amounted to 23.3 nM.

In the case of “CAGACACAUGAGGAUCACCCAUGUGAGGAUAUGCGUACGUUGUCCGUAGGCGACGUGCGCAGAAGGCGCAUUGG [JL-ex1-3.12 Eli mod] (puzzle: Exclusion 1)”, the “apparent KD of MS2 coat protein” value under setting [1] worked out at 90.3 nM.

In the case of “CUUUUGUGAGGAUAUCAGUAGUAAUACAAUAGUAUUAUUACUGAGAAGGCACAUGAGGAUCACCCAUGUUCCUC [Ex4 344 Omei mod 7] (puzzle: Exclusion 4)”, the “apparent KD of MS2 coat protein” value under setting [1] came out at 38.6 nM.

On to “ACAUGUAAUGCAGGAUAUUUUACACAUGAGGAUCACCCAUGUGACCAGAGGAAUUGCUAUGAGUAAAAGAAGGGUAUGUACAUG [Ex NG2 #57] (Eterna round: R96, puzzle: Exclusion NG 2)”, for which, under setting [2], the “apparent KD of MS2 coat protein” value was 53.9 nM.

Regarding “AGUACUAACACGGAAGUGUUAGUACUAUAAGCUUGUGUUACAUGAGGAUCACCCAUGUCCUCAUAAGCUCGUCUUAU [Mat - Sensor v3 - Turn-off var 2 - D69] (puzzle: Sensor v3, turn-off variant 2)”, the “apparent KD of MS2 coat protein” value is, setting by setting: under setting [3], 94.5 nM; under setting [1], 87 nM; under setting [4], 98.2 nM.

In the case of “GCCAGAGCAGGAUAUUCAAUAUCUCACAUGAGGAUCACCCAUGUCCAUCGAAAGAUGGAGGGAGAAGGGCUCUGGC [Mat - Exclusion 5 - Eli mod - D92] (puzzle: Exclusion 5)”, the “apparent KD of MS2 coat protein” value came to 37.3 nM under setting [3], 45.5 nM under setting [1] and 64.7 nM under setting [4].

As for “GAUUAUGCGAGCUUUAGGGACAUGAGGAUCACCCAUGUUCGUCUUAUUGGUCUAGAUGCACUGACAUACCUAAAUCU [JMF 79] (puzzle: Sensor v3, turn-off variant 1)”, the “apparent KD of MS2 coat protein” value is, setting by setting: under setting [3], 15.9 nM; under setting [1], 19.1 nM; under setting [4], 16.3 nM.

Turning to “AAUCCUCUGCAGGAUAUCACUGGAUGAACCAGCUGAGAAGGGCGCACAUGAGGAUCACCCAUGUUGUAAGUAGC [Eternabot (L1) Solution 80] (Eterna round: R97, puzzle: Exclusion 6)”, the “apparent KD of MS2 coat protein” value (input ligand: FMN 200 uM) amounted to 132 nM and the “apparent KD of MS2 coat protein” value (input ligand: none) was determined as 51.7 nM.

Regarding “GAGUGACAUGAGGAUCACCCAUGUGAGGAUAUCCGAUGGACCAAAUUAACAAUAGAAGGGAGAAGGCGCAUAAA [Exclusion 1 V8] (puzzle: Exclusion 1)”, the “apparent KD of MS2 coat protein” value worked out at 133 nM under setting [3], 152 nM under setting [1] and 158 nM under setting [4].

For “AAGAUGCGGGUAGGAUAUGGAGAGAAAGAAAGACCAGAAGGAUUGGUCACACAACAUGAGGAUCACCCAUGUGUGUGUUGCGAA [EX ng 1 6.1] (Eterna round: R96, puzzle: Exclusion NG 1)”, the “apparent KD of MS2 coat protein” value under setting [2] was found to be 9.22 nM.

Turning to “UACAUGAGGAUCACCCAUGUUUUGUCGUGUAUGGUAUUUAUCUAGGAUAUCAAUUUAUUAAUUUAUGAGAAGGAGAAUAUUAAU [JMF's solution 20] (Eterna round: R96, puzzle: Exclusion NG 3)”, the “apparent KD of MS2 coat protein” value came to 34.4 nM (input ligand: FMN 200 uM), 25.8 nM under setting [2] and 43.3 nM (input ligand: none).

Regarding “UGAUCAGACCGAGGAUAUACAGGGAGCACGCACGUGAGUGCGUGCACUACAUGAGGAUCACCCAUGUAGAAGGCGGUCUGAUCU [JL ENG2 1.00] (Eterna round: R96, puzzle: Exclusion NG 2)”, the “apparent KD of MS2 coat protein” value was 268 nM (input ligand: FMN 200 uM), 16.1 nM under setting [2] and 19.3 nM (input ligand: none).

For the sequence “GAUUAUGCGAGCUUUAGGGACAUGAGGAUCACCCAUGUUCGUCUUAUUGGUCUAGGUACGCUAACAUACCUAAAUCU [JMF 4] (puzzle: Sensor v3, turn-off variant 1)”, the “apparent KD of MS2 coat protein” value by setting is: under setting [3], 22.6 nM; under setting [1], 37.4 nM; under setting [4], 23.4 nM.

Consider “UUCCCGCGCGUGAGGAUAUGCUGAUCCCAGGAUUAGCAGAAGGCACAUGAGGAUCACCCAUGUCCAACUUGUCU [LRO-BmodExc4-14- Bluer = mod of Colors by Tatyana Zabanova] (Eterna round: R97, puzzle: Brourd's mod of Exclusion 4)”, for which the “apparent KD of MS2 coat protein” value turned out to be 38.5 nM (input ligand: FMN 200 uM) and 31.6 nM (input ligand: none).

As for “GUCGUGCAGCUUUGCUGUACGAGUACAUGAGGAUCACCCAUGUAGGAUAUGGUACGCUUUGCGUGCCAGAAGGACGUGCGUUGG [salish99_ExNG3_r04_004] (Eterna round: R96, puzzle: Exclusion NG 3)”, the “apparent KD of MS2 coat protein” value under setting [2] came out at 38.3 nM.

For “ACCGAAGCAGGAUAUACAUGAGGAUCACCCAUGUGCUUGCAUGGCGUGGGAAGUCAUAGUAGAAGGGCUACGCC [Onzaza] (Eterna round: R97, puzzle: Exclusion 3)”, the “apparent KD of MS2 coat protein” value came to 53 nM (input ligand: FMN 200 uM) and 22.4 nM (input ligand: none).

For the sequence “AGAUGUAGAUACCGAUCCUACAUGAGGAUCACCCAUGUAGCUAGACGUGCGCGCGUCGCUCGUCAGACUACCAGUAG [salish99_TOv1_r3_092] (puzzle: Sensor v3, turn-off variant 1)”, the “apparent KD of MS2 coat protein” value reads like this: under setting [3], 330 nM; under setting [1], 296 nM; under setting [4], 157 nM.

Take “CCGAAUAUGUAGGAUAUCGUAUCGGAAACGAUACGAGAAGGACAAACAUGAGGAUCACCCAUGUUCCUUAACGG [Fiskers Ex 6 - 12] (puzzle: Exclusion 6)”: the “apparent KD of MS2 coat protein” value is, setting by setting: under setting [3], 18.5 nM; under setting [1], 15.6 nM; under setting [4], 15 nM.

“AAUAAUAGGGAGGAUAUCGUAUCGGAAACGAUACGAGAAGGUCUAACAUGAGGAUCACCCAUGUUCCUCAAUAA [Fiskers Ex 6 - 5] (puzzle: Exclusion 6)”: the “apparent KD of MS2 coat protein” value is, setting by setting: under setting [3], 68.3 nM; under setting [1], 40.6 nM; under setting [4], 45.7 nM.

On to “ACCCAACAUGAGGAUCACCCAUGUCAGGAUAUCCAAGCGAAAGCAAAAGCGAAAGCAAGGAGAAGGGACAAUGG [ChP 04-04-2015 #7] (puzzle: Exclusion 1)”, for which the “apparent KD of MS2 coat protein” value is 134 nM under setting [3], 161 nM under setting [1] and 276 nM under setting [4].

With “UUGGAGAUAGGAUAUACGAGGAGAGUUGAGGGAACGCGAUGACAUGAGGAUCACCCAUGUAGAAGGAUCAGGAG [JR_Exclu2_Sub070] (puzzle: Exclusion 2)”, the “apparent KD of MS2 coat protein” value by setting is: under setting [3], 28.2 nM; under setting [1], 36 nM; under setting [4], 40.3 nM.

For the sequence “CUUCCCAAAGGAUAUCACGGUAAUAACAUGAGGAUCACCCAUGUGCAAUUCGUGUCCCUGUGAGAAGGUUGAGAAG [Anlabe] (puzzle: Exclusion 5)”, the “apparent KD of MS2 coat protein” value runs as follows: under setting [3], 17.9 nM; under setting [1], 11.1 nM; under setting [4], 12 nM.

Consider “CUAUUGCGAGGAUAUGAUUUAAAUAACAUGAGGAUCACCCAUGUUUUUACGUUGUUAUGUUCAGAAGGCGUAUUGU [JR_E5_Sub024] (puzzle: Exclusion 5)”, for which the “apparent KD of MS2 coat protein” value under setting [1] came to 41.4 nM.

As to “AGAGUGCUGCGAGGAUAUACAUGAGGAUCACCCAUGUUUUCCUGUGAGGCAUAGCCUCACAGGAUGUAGAAGGCGCAGUACUCA [Mat - Exclusion NG 2 - Mod of JL - D29] (Eterna round: R96, puzzle: Exclusion NG 2)”, the “apparent KD of MS2 coat protein” value (input ligand: FMN 200 uM) was determined as 13.5 nM, the “apparent KD of MS2 coat protein” value under setting [2] stood at 9.44 nM and the “apparent KD of MS2 coat protein” value (input ligand: none) was determined as 13.7 nM.

For “UAGAUGGCUCAGGAUAUUUGCCAACUAACCCGCAAAGAAGGGAGCACAUGAGGAUCACCCAUGUGAUCGAACAA [Xeortibeza] (puzzle: Exclusion 6)”, the “apparent KD of MS2 coat protein” value reads like this: under setting [3], 114 nM; under setting [1], 22.6 nM; under setting [4], 26.1 nM.

With “CCUAUGUGAGGAUAUCACUGGUCUUCUUUUAUUUUUUACAGUGAGAAGGCACAUGAGGAUCACCCAUGUCGGUG [Ex4 - 3 - 49] (puzzle: Exclusion 4)”, the “apparent KD of MS2 coat protein” value under setting [1] is 151 nM.

As for “GGAAUACAUGAGGAUCACCCAUGUAAGGAUAUGCUGAAUAUCACGGAAUAAACGUGCAGCAGAAGGUACAAAGG [Mat - Mod of my Eli Mod D46] (puzzle: Exclusion 1)”, the “apparent KD of MS2 coat protein” value reads like this: under setting [3], 103 nM; under setting [1], 65.9 nM; under setting [4], 93.6 nM.

Take “UUUUUGUGAGGAUAUCAGUAGUAAAAAAAUAAAAUUACUACUGAGAAGGCACAUGAGGAUCACCCAUGUUUUUU [salish99_ex4_r3_013] (puzzle: Exclusion 4)”: the “apparent KD of MS2 coat protein” value under setting [1] was determined as 43.3 nM.

With “AGUGCGUAUGUGAGGAUAUGCUGGUCCUUGGAUCGGCAGAAGGCACAUGAGGAUCACCCAUGUGGUGUCGUACG [salish99_Bmod_ex4_077] (puzzle: Brourd's mod of Exclusion 4)”, the “apparent KD of MS2 coat protein” value by setting is: under setting [3], 203 nM; under setting [1], 58.6 nM; under setting [4], 89.2 nM.

As for “AGGUGUAGAGGAUAUCUCUUCUCUCACAUGAGGAUCACCCAUGUCCUGGGUACCUAGGAGAGAGAAGGCUACACCA [Omei Ex5 D11] (Eterna round: R97, puzzle: Exclusion 5)”, the “apparent KD of MS2 coat protein” value (input ligand: FMN 200 uM) turned out to be 1370 nM and the “apparent KD of MS2 coat protein” value (input ligand: none) came to 587 nM.

On to “AGAAUGGUACAGGAUAUAGCAUCUAACUGCAUGCUAGAAGGGUAUACAUGAGGAUCACCCAUGUAGUCGUGGAU [Eternabot (L1) Solution 13] (Eterna round: R97, puzzle: Exclusion 6)”, for which the “apparent KD of MS2 coat protein” value runs as follows: (input ligand: FMN 200 uM) 55.2 nM; (input ligand: none) 37.4 nM.

Regarding “UUCGUGCAGCUUUGCUGUACGCGUACAUGAGGAUCACCCAUGUAGGAUAUGGUAGGCUUUGCUUACUAGAAGGAUAUAGUGAUC [JL EXNG3 1.31] (Eterna round: R96, puzzle: Exclusion NG 3)”, under setting [2], the “apparent KD of MS2 coat protein” value stood at 138 nM.
